In the supplement of paper PMC7125110:
± gives the standard error. Variants at the floor of the assay were thinned out.

B1: glmS ribozyme (parent)
chain: AUAAAAGCGCCAGAACUACAGAAAUGUAGUUGACGAGGAGGAGGUUUAUCGAAUUUUCGGCGGAUGCCUCCAAA

Experiments:
Conditions in all cases: with glucosamine-6-phosphate
glucosamine-6-phosphate [1] = variants of: B1; assay: self-cleavage kobs at 40 uM GlcN6P; higher = faster cleavage; RNA array
How it was run: (§1)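 Tiles bearing barcoded ribozyme variants, transcribed in situ by E. coli RNA polymerase on sequenced MiSeq chips, were imaged over ~14 h at 37 °C using a hybridised Cy3 probe. Glucosamine-6-phosphate was supplied at 40 μM to 10 mM in HEPES/KCl/Mg(OAc)2 buffer. kobs came from one- or two-exponential decay fits to normalised per-tile medians, and weighted Michaelis–Menten fits then provided kcat and KM.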

glucosamine-6-phosphate [2] = variants of: B1; assay: self-cleavage kobs at 160 uM GlcN6P; higher = faster cleavage; RNA array
How it was run: as §1

glucosamine-6-phosphate [3] = variants of: B1; assay: self-cleavage kobs at 640 uM GlcN6P; higher = faster cleavage; RNA array
How it was run: as §1

glucosamine-6-phosphate [4] = variants of: B1; assay: self-cleavage kobs at 2500 uM GlcN6P; higher = faster cleavage; RNA array
How it was run: as §1

glucosamine-6-phosphate [5] = variants of: B1; assay: self-cleavage kobs at 10000 uM GlcN6P; higher = faster cleavage; RNA array
How it was run: as §1

| Variant | self-cleavage kobs at 40 uM GlcN6P (glucosamine-6-phosphate [1]) [s⁻¹] | self-cleavage kobs at 160 uM GlcN6P (glucosamine-6-phosphate [2]) [s⁻¹] | self-cleavage kobs at 640 uM GlcN6P (glucosamine-6-phosphate [3]) [s⁻¹] | self-cleavage kobs at 2500 uM GlcN6P (glucosamine-6-phosphate [4]) [s⁻¹] | self-cleavage kobs at 10000 uM GlcN6P (glucosamine-6-phosphate [5]) [s⁻¹] |
| --- | --- | --- | --- | --- | --- |
| A52C G62C C70A | < 1e-05 |  |  |  |  |
| G32C G62A | < 1e-05 | < 1e-05 | < 1e-05 | < 1e-05 |  |
| A6U G32C G41U | < 1e-05 |  |  |  |  |
| U31A C34U C71U | < 1e-05 |  |  |  |  |
| G9U U30C G43A | < 1e-05 |  | < 1e-05 |  |  |
| G60A G62C | < 1e-05 | < 1e-05 |  | < 1e-05 |  |
| A12C A53U G62U | < 1e-05 |  |  |  | < 1e-05 |
| A6U C8G A48U G62C | < 1e-05 |  |  |  |  |
| A33C A36C | < 1e-05 |  |  | < 1e-05 |  |
| G32A G62A | < 1e-05 | < 1e-05 | < 1e-05 |  | < 1e-05 |
| A6C C11G U30G G35U C50G C58G | 0.00011 ± 2.3e-05 |  |  | 0.000242 ± 4.4e-05 | 0.000175 ± 5.1e-05 |
| U49C G60A | < 1e-05 | < 1e-05 |  |  | < 1e-05 |
| G7U U45C U56A | < 1e-05 |  | < 1e-05 | < 1e-05 |  |
| A36C A53G | < 1e-05 |  |  |  | < 1e-05 |
| G37U U46C | < 1e-05 |  |  |  | < 1e-05 |
| G66A C71U | 0.000673 ± 0.00012 |  | 0.00361 ± 0.0008 |  | 0.0215 ± 0.007 |
| A6G A15C U31C A42C | < 1e-05 |  |  |  | < 1e-05 |
| A33U G38C G40C U65A C70G | < 1e-05 |  |  | < 1e-05 | < 1e-05 |
| G7A A12C G51C A53G G66A | < 1e-05 |  |  |  |  |
| G40A U54G | 0.00036 ± 6.8e-05 |  | 0.0015 ± 0.00038 | 0.00184 ± 0.00065 | 0.00643 ± 0.0015 |
| G29U A36U A52G | < 1e-05 |  |  |  |  |
| U69C C71A | 5.28e-05 ± 2.1e-05 | 0.000113 ± 1.9e-05 | 0.000587 ± 8.4e-05 | 0.000478 ± 9.3e-05 |  |
| A6C G40A | < 1e-05 | < 1e-05 |  |  | 2.46e-05 ± 9.8e-06 |
| U30C A33C U47G | < 1e-05 |  |  |  | < 1e-05 |
| G7A G44C A48U C68U | < 1e-05 |  |  |  | < 1e-05 |

| Variant | self-cleavage kobs at 40 uM GlcN6P (glucosamine-6-phosphate [1]) [s⁻¹] | self-cleavage kobs at 160 uM GlcN6P (glucosamine-6-phosphate [2]) [s⁻¹] | self-cleavage kobs at 640 uM GlcN6P (glucosamine-6-phosphate [3]) [s⁻¹] | self-cleavage kobs at 2500 uM GlcN6P (glucosamine-6-phosphate [4]) [s⁻¹] | self-cleavage kobs at 10000 uM GlcN6P (glucosamine-6-phosphate [5]) [s⁻¹] |
| --- | --- | --- | --- | --- | --- |
| U30G G44U U45C | < 1e-05 |  |  |  | < 1e-05 |
| G40U G44A U57C C61G G66U | < 1e-05 |  |  | < 1e-05 |  |
| A12U C16A A53U | 6.29e-05 ± 1.7e-05 |  | 0.000278 ± 8.9e-05 | 0.00138 ± 0.00059 |  |
| G32C U46A | < 1e-05 | < 1e-05 | < 1e-05 |  |  |
| C10U C11G | < 1e-05 |  | < 1e-05 | < 1e-05 | < 1e-05 |
| G37U U47A C68G | < 1e-05 |  |  | 9e-05 ± 3.5e-05 | < 1e-05 |
| G35A U65A | < 1e-05 | < 1e-05 | < 1e-05 | < 1e-05 | < 1e-05 |
| A39C A42U A48G C50A | < 1e-05 |  |  |  |  |
| G7A G35A A53C | < 1e-05 | < 1e-05 | < 1e-05 | < 1e-05 |  |
| C10U A36U U65G | < 1e-05 |  |  |  |  |
| C10A A53G G60C | < 1e-05 |  |  |  |  |
| A36U C50G A64G C70G | 0.000457 ± 0.00012 |  |  | 0.000298 ± 0.00013 | 0.000194 ± 4.9e-05 |
| C34U G63U | < 1e-05 | < 1e-05 | < 1e-05 | < 1e-05 |  |
| G38C U69C | < 1e-05 | < 1e-05 |  |  | < 1e-05 |
| A33U G51U | < 1e-05 | < 1e-05 |  |  |  |
| A6G G60U | < 1e-05 | < 1e-05 | < 1e-05 |  |  |
| G41C A42C | < 1e-05 | < 1e-05 | < 1e-05 | < 1e-05 |  |
| A14U G63U | < 1e-05 | < 1e-05 | < 1e-05 | < 1e-05 |  |
| A36C C58G U69G | 7.56e-05 ± 2.1e-05 |  |  |  | 5.12e-05 ± 1.9e-05 |
| A42U G59C | < 1e-05 | < 1e-05 | < 1e-05 | < 1e-05 | < 1e-05 |
| G7A A33C | < 1e-05 | < 1e-05 | < 1e-05 |  | < 1e-05 |
| U56C G59C | < 1e-05 |  |  |  | < 1e-05 |
| C58G A64G C70G | < 1e-05 |  |  |  |  |
| A33U C58U C71A | < 1e-05 |  | < 1e-05 | < 1e-05 |  |
| A12U G40A G63C | < 1e-05 |  |  |  |  |
